Laboratory results: the supplement of paper PMC10567573

B1: DCAF4 (parent)
chain: DSHILLCLMGLAETPGCATLLPAS
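Further: lentivirally expressed fusions sorted by FACS into six bins by GFP to DsRed ratio, PSI derived from sequencing read proportions per bin multiplied by bin number.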

Variants of: B1
Test: protein stability index of a GFP-peptide fusion (GPS, HEK-293T) (PSI 1-6); higher = more stable
Settings: c terminus: a fixed tail appended
Variant E13H has a protein stability index of 2.77.
Work on E13K yielded a protein stability index of 2.59.
E13G gave a protein stability index of 1.88.
Variant E13I has a protein stability index of 4.29.
Work on E13N yielded a protein stability index of 2.83.
Work on E13F yielded a protein stability index of 2.49.
Variant H3T has a protein stability index of 3.73.
For H3V, the protein stability index was 2.04.
With H3P the protein stability index was 2.65.
Work on H3I yielded a protein stability index of 3.85.
In the case of H3N, the protein stability index is reported as 3.2.
Variant H3E has a protein stability index of 2.27.
In the case of H3W, the protein stability index is reported as 3.17.
H3A gave a protein stability index of 2.76.
Work on H3G yielded a protein stability index of 3.24.
With H3C the protein stability index was 1.61.
Variant D1G has a protein stability index of 3.42.
With D1Q the protein stability index was 2.87.
D1L showed a protein stability index of 3.08.
For D1W, the protein stability index was 3.42.
D1A showed a protein stability index of 2.99.
For D1T, the protein stability index was 2.58.
D1K gave a protein stability index of 2.07.
D1C showed a protein stability index of 3.49.
With D1I the protein stability index was 2.64.
With D1R the protein stability index was 4.01.
For G10D, the protein stability index was 2.89.
G10L showed a protein stability index of 2.56.
Work on G10F yielded a protein stability index of 2.99.
In the case of G10Y, the protein stability index is reported as 2.37.
For G10A, the protein stability index was 1.84.
For G10M, the protein stability index was 2.95.
Work on G10T yielded a protein stability index of 3.51.
In the case of G10E, the protein stability index is reported as 1.79.
In the case of G10S, the protein stability index is reported as 3.06.
With L11K the protein stability index was 1.71.
Variant L11A has a protein stability index of 2.08.
L11Q showed a protein stability index of 1.66.
With L11P the protein stability index was 2.59.
For L11D, the protein stability index was 1.66.
L11M showed a protein stability index of 2.42.
With L11N the protein stability index was 1.27.
In the case of L11Y, the protein stability index is reported as 3.55.
In the case of L11R, the protein stability index is reported as 2.05.
With L11W the protein stability index was 1.8.
L11H gave a protein stability index of 2.36.
L11T gave a protein stability index of 2.7.
Variant L11F has a protein stability index of 2.98.
In the case of L11S, the protein stability index is reported as 1.4.
A23V gave a protein stability index of 1.49.
Work on A23C yielded a protein stability index of 1.89.
In the case of A23T, the protein stability index is reported as 2.42.
With A23G the protein stability index was 2.37.
Work on A23E yielded a protein stability index of 3.69.
For A23P, the protein stability index was 1.79.
A23M gave a protein stability index of 1.66.
M9T showed a protein stability index of 1.98.
Variant M9D has a protein stability index of 1.92.
Work on M9E yielded a protein stability index of 2.02.
In the case of M9N, the protein stability index is reported as 1.6.
In the case of M9V, the protein stability index is reported as 2.83.
Variant M9P has a protein stability index of 2.12.
M9G showed a protein stability index of 1.7.
With M9S the protein stability index was 1.67.
In the case of M9Y, the protein stability index is reported as 3.06.
M9R showed a protein stability index of 1.82.
With M9I the protein stability index was 2.6.
M9A gave a protein stability index of 2.83.
For S24T, the protein stability index was 3.75.
Work on S24E yielded a protein stability index of 1.74.
For S24A, the protein stability index was 1.39.
Variant S24I has a protein stability index of 2.82.
For L5W, the protein stability index was 2.79.
Work on L5F yielded a protein stability index of 1.59.
In the case of L5T, the protein stability index is reported as 1.65.
Work on L5Y yielded a protein stability index of 2.77.
Work on L5Q yielded a protein stability index of 2.27.
Work on L5K yielded a protein stability index of 2.12.
Work on L5V yielded a protein stability index of 2.28.
Work on L5R yielded a protein stability index of 1.44.
With L5S the protein stability index was 1.78.
In the case of L5P, the protein stability index is reported as 3.06.
With L5D the protein stability index was 2.09.
With A18S the protein stability index was 1.6.
Variant A18D has a protein stability index of 2.39.
Variant A18H has a protein stability index of 2.28.
A18F showed a protein stability index of 2.32.
In the case of A18Q, the protein stability index is reported as 2.02.
With A18Y the protein stability index was 2.47.
For A18R, the protein stability index was 3.11.
A18N showed a protein stability index of 2.07.
A18I showed a protein stability index of 2.33.
In the case of A18C, the protein stability index is reported as 4.64.
With G16Q the protein stability index was 2.81.
G16M gave a protein stability index of 2.6.
In the case of G16L, the protein stability index is reported as 2.05.
In the case of G16P, the protein stability index is reported as 4.04.
G16C showed a protein stability index of 3.37.
Work on G16A yielded a protein stability index of 3.16.
G16H gave a protein stability index of 2.37.
G16Y gave a protein stability index of 2.65.
With G16V the protein stability index was 2.76.
With G16F the protein stability index was 2.85.
Variant P15V has a protein stability index of 2.59.
Work on P15D yielded a protein stability index of 2.56.
In the case of P15F, the protein stability index is reported as 3.63.
P15C showed a protein stability index of 2.61.
With P15S the protein stability index was 2.52.
P15I gave a protein stability index of 2.35.
P15E gave a protein stability index of 2.06.
Work on P15L yielded a protein stability index of 3.33.
In the case of C7F, the protein stability index is reported as 2.76.
In the case of C7Q, the protein stability index is reported as 1.8.
C7R showed a protein stability index of 2.1.
With C7P the protein stability index was 2.47.
With C7Y the protein stability index was 3.
With C7I the protein stability index was 2.51.
With C7N the protein stability index was 2.08.
Work on C7K yielded a protein stability index of 2.14.
For C7D, the protein stability index was 1.78.
Work on C7V yielded a protein stability index of 2.19.
Variant C7E has a protein stability index of 1.7.
C17P gave a protein stability index of 3.
For C17H, the protein stability index was 2.58.
With C17I the protein stability index was 2.04.
Work on C17R yielded a protein stability index of 1.78.
Variant C17A has a protein stability index of 2.98.
C17T gave a protein stability index of 3.4.
C17K gave a protein stability index of 1.83.
For C17M, the protein stability index was 2.38.
For C17E, the protein stability index was 2.63.
C17Y gave a protein stability index of 2.55.
C17F showed a protein stability index of 2.34.
C17G gave a protein stability index of 3.08.
P22H showed a protein stability index of 3.65.
With P22K the protein stability index was 3.2.
In the case of P22R, the protein stability index is reported as 3.03.
For P22A, the protein stability index was 3.01.
S2I gave a protein stability index of 2.04.
In the case of S2W, the protein stability index is reported as 2.68.
In the case of S2H, the protein stability index is reported as 1.36.
With S2V the protein stability index was 3.74.
S2L showed a protein stability index of 2.63.
S2Q gave a protein stability index of 3.81.
T19K showed a protein stability index of 3.24.
In the case of T19S, the protein stability index is reported as 2.67.
With T19A the protein stability index was 2.22.
In the case of T19D, the protein stability index is reported as 3.26.
Variant T19Y has a protein stability index of 3.13.
T19E gave a protein stability index of 3.24.
Work on T19W yielded a protein stability index of 2.05.
T19R gave a protein stability index of 1.64.
Variant T19F has a protein stability index of 3.47.
For L21G, the protein stability index was 2.21.
L21D showed a protein stability index of 1.71.
L21A showed a protein stability index of 3.11.
L21H gave a protein stability index of 4.41.
For L21W, the protein stability index was 2.8.
T14R gave a protein stability index of 2.05.
Work on T14V yielded a protein stability index of 2.66.
For T14K, the protein stability index was 3.42.
In the case of T14G, the protein stability index is reported as 2.77.
Work on T14H yielded a protein stability index of 3.66.
Work on T14Y yielded a protein stability index of 3.79.
For T14C, the protein stability index was 2.24.
For T14N, the protein stability index was 3.05.
With T14S the protein stability index was 2.47.
